Reference: PMC5524322, “Species A rotavirus NSP3 acquires its translation inhibitory function prior to stable dimer formation” (PLoS ONE, 2017)
Numbering of substitutions follows the chain as printed. Names may count otherwise.

Target: the molecule itself
Experiment: non-dissociating Western blot (WB-ND); lysates of vaccinia-infected BSC-1 cells (18 hpi) mixed with 2x non-dissociating sample buffer (62.5 mM Tris-HCl pH 6.8, 0.8% SDS, 20% glycerol), 30 min on ice, not boiled; 12% SDS-PAGE in a cold room; blot with anti-NSP3 rat serum; stable dimer band (68 kDa) told apart from monomer/dimerization intermediate band (34 kDa); cells with MG132 or DMSO, in one experiment with …

B1: wild type NSP3 (non-structural protein 3) of simian species A rotavirus strain RRV (natural protein)
chain: MESTQQMASSIINSSFEAAVVAATSTLELMGIQYDYNEVYTRVKSKFDLVMDDSGVKNNLIGKAITIDQALNGKFSSAIRNRNWMTDSRTVAKLDEDVNKLRIMLSSKGIDQKMRVLNACFSVKRIPGKSSSIVKCTRLMKDKLERGEVEVDDSFVEEKMEVDTIDWKSRYEQLEKRFESLKHRVNEKYNHWVLKARKVNENMNSLQNVISQQQAHINELQMYNNKLERDLQSKIGSVVSSIEWYLRSMELSDDVKSDIEQQLNSIDQLNPVNAIDDFESILRNLISDYDRLFIMFKGLLQQCNYTYTYE
notes: also called wtNSP3; RRV NSP3
stoichiometry N: 2

B2: NSP3 W170A of rotavirus strain RRV (natural protein)
chain: B1 chain with W167A
notes: also called vNSP3_(W170A)
fold lower accumulation of stable dimers than NSP3_(Y192A): 16 fold | fold lower accumulation of stable dimers than wtNSP3: 9 fold
